Laboratory results as given in publication PMC10237670, “Biochemical properties of naturally occurring human bloom helicase variants”.

Legend:
[1] = biological target: T1, BLMcore G1120R (Homo sapiens, UniProt P54132 636-1298, G1120R); assay: EMSA; 5 mM MgCl2; distinct shift; estimated apparent KD; 50 mM Tris-HCl pH 7.5, 50 mM KCl, 5 mM MgCl2, 1 mM DTT, 0.1 mg/mL BSA, 40 nM DNA, 30 min room temperature; 5% gel in TBE + 100 mM KCl at 4 C; details: protein: recombinant; (HisTrap purified); label: 3'-FAM on oAV320 (strand 2); 18 bp duplex, 3' overhang 39 nt on strand 1
[2] = biological target: T2, BLMcore P868L (Homo sapiens, UniProt P54132 636-1298, P868L); assay: as above; details: protein: recombinant; (HisTrap purified); label: 3'-FAM on oAV320 (strand 2); 18 bp duplex, 3' overhang 39 nt on strand 1
[3] = biological target: BLMcore K869A K870A (Homo sapiens, UniProt P54132 636-1298, K869A;K870A); assay: EMSA; 5 mM MgCl2; smear; estimated apparent KD; 50 mM Tris-HCl pH 7.5, 50 mM KCl, 5 mM MgCl2, 1 mM DTT, 0.1 mg/mL BSA, 40 nM DNA, 30 min room temperature; 5% gel in TBE + 100 mM KCl at 4 C; details: protein: recombinant, (HisTrap purified)
[4] = biological target: T1, BLMcore G1120R; assay: as above; details: protein: recombinant, (HisTrap purified)
[5] = biological target: T2, BLMcore P868L; assay: as above; details: protein: recombinant, (HisTrap purified)
[6] = label: 3'-FAM, intramolecular G4 (folded in 100 mM KCl) with 3' T-rich ssDNA tail

T1 sequence (P54132 636-1298 G1120R): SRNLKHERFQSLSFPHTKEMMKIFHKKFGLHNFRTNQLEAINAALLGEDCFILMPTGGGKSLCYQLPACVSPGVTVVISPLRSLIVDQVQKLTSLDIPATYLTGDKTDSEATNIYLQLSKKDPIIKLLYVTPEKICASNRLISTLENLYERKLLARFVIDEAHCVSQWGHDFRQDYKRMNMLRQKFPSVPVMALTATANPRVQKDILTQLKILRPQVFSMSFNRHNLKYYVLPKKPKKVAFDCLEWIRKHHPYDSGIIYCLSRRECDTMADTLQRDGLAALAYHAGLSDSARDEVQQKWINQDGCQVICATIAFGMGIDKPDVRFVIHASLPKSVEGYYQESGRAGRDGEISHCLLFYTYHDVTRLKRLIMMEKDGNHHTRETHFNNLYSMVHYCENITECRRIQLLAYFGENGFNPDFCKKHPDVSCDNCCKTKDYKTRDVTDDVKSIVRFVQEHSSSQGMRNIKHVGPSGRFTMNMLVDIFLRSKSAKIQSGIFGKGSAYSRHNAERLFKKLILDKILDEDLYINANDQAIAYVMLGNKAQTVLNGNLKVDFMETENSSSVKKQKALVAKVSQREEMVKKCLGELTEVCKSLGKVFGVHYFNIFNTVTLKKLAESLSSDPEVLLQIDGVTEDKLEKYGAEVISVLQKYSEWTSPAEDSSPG
T2 sequence (P54132 636-1298 P868L): as the sequence (P54132 636-1298 G1120R) above, with P233L, R485G counted along it
Chain of BLMcore K869A K870A (P54132 636-1298 K869A/K870A): as the sequence (P54132 636-1298 G1120R) above, with K234A, K235A, R485G counted along it

B1: partial dsDNA with 3' ssDNA overhang (oRC32/FAM-oAV320) (dsDNA)
DNA 1: TGGCGACGGCAGCGAGGCTTAGGGTTAGCGTTAGCGTTAGGGTTTTTTTTTTTTTTT
DNA 2: GCCTCGCTGCCGTCGCCA
B1 showed a Kd [1] of ~62.5 nM and a Kd [2] of ~62.5 nM.

With GGGTTAGGGTTAGGGTTAGGGTTTTTTTTTT (structured_DNA) [G4 DNA with 3' ssDNA overhang (FAM-oRC96)] the Kd [3, 6] was ~625 nM, the Kd [4, 6] was ~250 nM and the Kd [5, 6] was ~125 nM.

In the case of TTTTTTTTTTTTTTTTTTTTTTTTTTTTTT (ssDNA) [FAM-dT30 (ssDNA)], the Kd ([3]; single strand) is reported as ~312 nM, the Kd ([4]; single strand) is reported as ~62.5 nM and the Kd ([5]; single strand) is reported as ~62.5 nM.
